For two substances, transcriptional repression of GAL4-VP16 activation of the RARE-G5-TATA reporter in HeLa cells, 50 ng expression vector and percentage of differentiated, CD14+ U937 cells after vitamin D and TGFβ, PML-RAR induced (% CD14+ cells) results are on record in patent US20030207791A1, “Materials and methods relating to the treatment of leukaemias” (priority 2000, published 2003).

The target of experiment [1] is nuclear corepressor (NCoR) (UniProt O75376). The experiment in a line: cell-based or functional assay.
For a further experiment, the target named is PML-RAR (UniProt P29590). The experiment in a line: cell-based or functional assay.
Sequence of PML-RAR (UniProt P29590) (P29590 other isoform, or with tags, fused parts or gaps limits assumed): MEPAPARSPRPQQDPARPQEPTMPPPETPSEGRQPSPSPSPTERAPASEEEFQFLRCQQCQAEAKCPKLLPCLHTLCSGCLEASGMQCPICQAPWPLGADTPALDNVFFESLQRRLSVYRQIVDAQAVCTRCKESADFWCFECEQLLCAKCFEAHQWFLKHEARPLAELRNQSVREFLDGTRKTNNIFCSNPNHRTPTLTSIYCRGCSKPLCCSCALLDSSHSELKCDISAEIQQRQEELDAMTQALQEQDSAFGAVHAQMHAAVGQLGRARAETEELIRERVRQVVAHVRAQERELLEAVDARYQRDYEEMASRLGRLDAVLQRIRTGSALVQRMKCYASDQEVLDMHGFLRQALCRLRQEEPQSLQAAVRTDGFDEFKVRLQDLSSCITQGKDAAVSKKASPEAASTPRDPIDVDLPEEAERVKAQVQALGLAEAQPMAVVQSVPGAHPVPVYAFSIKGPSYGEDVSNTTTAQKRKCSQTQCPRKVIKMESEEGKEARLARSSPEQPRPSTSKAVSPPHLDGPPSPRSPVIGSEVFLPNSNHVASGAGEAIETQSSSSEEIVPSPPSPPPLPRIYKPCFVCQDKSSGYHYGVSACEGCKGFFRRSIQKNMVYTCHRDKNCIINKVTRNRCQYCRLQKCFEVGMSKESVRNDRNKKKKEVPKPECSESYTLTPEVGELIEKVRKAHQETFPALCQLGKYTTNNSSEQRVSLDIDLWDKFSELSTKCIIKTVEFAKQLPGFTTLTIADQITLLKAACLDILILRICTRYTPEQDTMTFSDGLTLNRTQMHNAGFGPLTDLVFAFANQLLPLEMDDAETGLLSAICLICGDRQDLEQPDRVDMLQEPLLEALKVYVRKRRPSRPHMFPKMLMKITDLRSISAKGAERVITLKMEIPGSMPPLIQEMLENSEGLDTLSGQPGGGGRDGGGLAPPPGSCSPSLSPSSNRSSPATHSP

Sequence of PML-RAR (from UniProt P29590 1-552; P10276 61-462) (P29590 other isoform, or with tags, fused parts or gaps limits assumed): as above
Sequence of nuclear corepressor (NCoR) (O75376 whole entry): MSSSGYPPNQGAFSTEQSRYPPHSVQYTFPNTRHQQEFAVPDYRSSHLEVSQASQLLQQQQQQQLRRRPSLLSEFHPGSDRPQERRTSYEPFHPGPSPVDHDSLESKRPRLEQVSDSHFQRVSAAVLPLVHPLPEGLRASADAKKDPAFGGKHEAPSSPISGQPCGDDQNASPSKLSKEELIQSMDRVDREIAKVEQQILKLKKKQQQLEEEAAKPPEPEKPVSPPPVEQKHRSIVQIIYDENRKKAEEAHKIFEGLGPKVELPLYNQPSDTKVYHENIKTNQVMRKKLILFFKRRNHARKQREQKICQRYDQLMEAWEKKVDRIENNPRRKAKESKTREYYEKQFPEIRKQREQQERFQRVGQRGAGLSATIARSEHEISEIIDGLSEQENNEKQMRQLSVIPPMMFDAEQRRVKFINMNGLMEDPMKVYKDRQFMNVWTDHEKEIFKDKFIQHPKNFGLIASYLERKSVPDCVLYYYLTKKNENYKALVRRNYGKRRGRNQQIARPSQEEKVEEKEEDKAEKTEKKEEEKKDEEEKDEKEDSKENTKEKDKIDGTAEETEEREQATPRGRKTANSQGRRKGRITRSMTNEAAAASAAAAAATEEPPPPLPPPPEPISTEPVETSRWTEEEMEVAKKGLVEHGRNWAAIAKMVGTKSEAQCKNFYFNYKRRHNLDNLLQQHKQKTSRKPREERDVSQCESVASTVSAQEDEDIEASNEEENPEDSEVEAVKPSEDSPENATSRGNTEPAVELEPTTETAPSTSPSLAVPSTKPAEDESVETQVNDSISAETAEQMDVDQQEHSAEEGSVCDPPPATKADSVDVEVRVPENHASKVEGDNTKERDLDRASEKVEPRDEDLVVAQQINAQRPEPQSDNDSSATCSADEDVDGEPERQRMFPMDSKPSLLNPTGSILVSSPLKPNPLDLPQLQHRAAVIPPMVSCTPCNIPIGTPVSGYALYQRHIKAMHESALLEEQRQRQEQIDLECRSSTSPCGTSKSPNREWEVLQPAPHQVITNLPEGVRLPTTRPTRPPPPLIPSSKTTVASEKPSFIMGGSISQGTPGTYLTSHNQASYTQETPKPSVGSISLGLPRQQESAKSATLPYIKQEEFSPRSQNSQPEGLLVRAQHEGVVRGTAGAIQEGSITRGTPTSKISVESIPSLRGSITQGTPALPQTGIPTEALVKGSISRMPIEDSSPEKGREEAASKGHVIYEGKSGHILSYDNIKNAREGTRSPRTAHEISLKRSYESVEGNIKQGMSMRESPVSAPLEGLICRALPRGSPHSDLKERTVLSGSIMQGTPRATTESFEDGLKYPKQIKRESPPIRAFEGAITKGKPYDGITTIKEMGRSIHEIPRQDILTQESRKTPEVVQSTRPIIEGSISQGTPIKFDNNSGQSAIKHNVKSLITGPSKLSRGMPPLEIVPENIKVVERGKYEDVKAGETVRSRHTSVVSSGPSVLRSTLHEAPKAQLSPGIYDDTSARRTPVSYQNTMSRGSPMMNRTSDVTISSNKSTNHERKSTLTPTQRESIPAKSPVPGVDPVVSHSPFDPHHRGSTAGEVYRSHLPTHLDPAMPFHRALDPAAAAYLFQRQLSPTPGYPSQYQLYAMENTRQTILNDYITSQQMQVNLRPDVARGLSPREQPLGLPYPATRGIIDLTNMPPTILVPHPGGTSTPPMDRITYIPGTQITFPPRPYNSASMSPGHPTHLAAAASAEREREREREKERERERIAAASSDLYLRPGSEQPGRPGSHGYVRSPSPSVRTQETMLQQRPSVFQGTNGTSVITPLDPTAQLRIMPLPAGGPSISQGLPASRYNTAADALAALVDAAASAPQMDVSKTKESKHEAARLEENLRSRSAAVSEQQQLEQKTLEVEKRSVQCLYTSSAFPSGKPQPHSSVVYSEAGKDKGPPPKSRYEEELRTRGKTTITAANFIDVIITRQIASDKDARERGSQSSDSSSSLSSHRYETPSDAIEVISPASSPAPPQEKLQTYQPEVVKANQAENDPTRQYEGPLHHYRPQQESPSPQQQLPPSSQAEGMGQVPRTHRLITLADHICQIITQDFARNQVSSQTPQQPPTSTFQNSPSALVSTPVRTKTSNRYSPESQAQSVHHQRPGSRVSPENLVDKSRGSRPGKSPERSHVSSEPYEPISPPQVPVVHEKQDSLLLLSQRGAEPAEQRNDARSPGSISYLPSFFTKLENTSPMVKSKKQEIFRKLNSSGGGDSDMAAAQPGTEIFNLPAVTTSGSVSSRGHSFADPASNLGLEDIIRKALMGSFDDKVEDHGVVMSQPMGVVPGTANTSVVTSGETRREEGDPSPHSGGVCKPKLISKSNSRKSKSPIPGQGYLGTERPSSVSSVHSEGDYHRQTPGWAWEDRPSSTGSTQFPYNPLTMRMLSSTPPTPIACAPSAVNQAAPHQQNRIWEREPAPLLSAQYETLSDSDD

“PML-RAR (from UniProt P29590 1-552; P10276 61-462)” registered a transcriptional repression of GAL4-VP16 activation of the RARE-G5-TATA reporter in HeLa cells, 50 ng expression vector in experiment [1] of 30 to 40%.
For “coiled coil of PML (RBCC) (from UniProt P29590 1-360)”, the percentage of differentiated, CD14+ U937 cells after vitamin D and TGFβ, PML-RAR induced (% CD14+ cells) with PML-RAR came to 70.
